Measurements published in PMC12344899.

Columns and labels:
Assay in all cases: anti-GFP affinity gel immunoprecipitation and western blot densitometry
mCherry-A171 = settings: HEK293T cells co-transfected, lysed at 2 dpt; parent: est. 1.0; read off a plot
mCherry-A44 = settings: HEK293T cells co-transfected, lysed at 2 dpt; parent: est. 1.0; read off a plot
mCherry-A123 = settings: HEK293T cells co-transfected, lysed at 2 dpt; parent: est. 0.97; read off a plot

| Substance | response (relative density (intrabody / Etf-2-GFP)) (mCherry-A171) | response (relative density (intrabody / Etf-2-GFP)) (mCherry-A44) | response (relative density (intrabody / Etf-2-GFP)) (mCherry-A123) |
| --- | --- | --- | --- |
| Etf-2 (full-length)–GFP (from UniProt Q2GHK1) R188A; Q245A | 0.88 | 0.24 | 0.1 |
| Etf-2 (full-length)–GFP (from UniProt Q2GHK1) Q245A | 0.83 | 0.25 | 0.84 |
| Etf-2 (full-length)–GFP (from UniProt Q2GHK1) R188A | 0.85 | 1.1 | 0.94 |
